In patent publication US20210139548A1 (published 2021):
*1 amine or outer side, *2 acyl side, *3 side chain or, on linkers, in order; H or OH if unused. Side-chain parts run from the residue outwards. The star is where a group is joined. C18 diacid = O=C(O)CCCCCCCCCCCCCCCCC(=O)*; γGlu = O=C(O)[C@H](CCC(=O)[*:2])N[*:1]; Isovaleryl = CC(C)CC(=O)*; AEEA = NCCOCCOCC(=O)O

What follows are binders tested against T1, human neuropeptide Y2 receptor (human, UniProt P49146 1-381) (assay: radioligand competition (125I-PYY(1-36)), hNPY2R membranes).
T1 construct: whole, on cells; also called hNPY2 receptor; hNPY2-R
T1 sequence (looked up): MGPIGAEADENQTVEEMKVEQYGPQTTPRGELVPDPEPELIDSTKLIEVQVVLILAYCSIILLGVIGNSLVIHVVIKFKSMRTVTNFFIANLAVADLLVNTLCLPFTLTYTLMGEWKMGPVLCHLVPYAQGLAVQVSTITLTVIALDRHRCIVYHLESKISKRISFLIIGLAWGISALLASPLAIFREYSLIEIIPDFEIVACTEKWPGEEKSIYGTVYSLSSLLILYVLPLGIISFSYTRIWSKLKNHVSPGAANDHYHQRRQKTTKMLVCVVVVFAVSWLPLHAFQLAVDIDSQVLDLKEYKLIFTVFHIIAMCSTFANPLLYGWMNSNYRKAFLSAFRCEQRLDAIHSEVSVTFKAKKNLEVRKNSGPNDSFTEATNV
Experimental: The filtration RLB assay was carried out in 96-well plates in a final volume of 100 μl per well. Freeze-dried test peptides were dissolved in 100% dimethyl sulfoxide (DMSO) to stock solutions of 1 mM and serial dilutions were performed in assay buffer (50 mM HEPES, 5 mM MgCl₂, 1 mM CaCl₂, pH 7.4) containing 0.2% ovalbumin. […] Next, 80 μL membranes (HTS066M, ChemiSCREEN™ Human Neuropeptide Y2 Receptor Membrane Preparation, CHEMICON) were added to each well to give a final protein concentration of 0.5 μg/well. The plates were sealed and incubated at room temperature for 2 hours in a plate shaker set at 400 rpm. The incubation was stopped by vacuum filtration onto 0.5% poly-ethylene amine (PEI) presoaked GF/C filters using a 96-well FilterMate™ harvester (Perkin Elmer) followed by four washes with 300 μl/well ice-cold wash buffer (50 mM HEPES, 500 mM NaCl, pH7.4). Filter plates were then dried for 60 min at room temperature and the bottom of the plates was sealed with backing tape UniFilter-96. Finally, 50 μl/well scintillation counter cocktail (Microscint20, Packard) was added and the radioactivity was counted in the Packard TopCount NXT scintillation counter. IC₅₀ values (the half maximal inhibitory concentration of the agonist) were calculated by nonlinear regression analysis of sigmoidal dose-response curves.

| Binder | Ki |
| --- | --- |
| Isovaleryl-APEK([AEEA-AEEA-γGlu-C18 diacid])PEEDAQPEELQEYYVSLRHYYNWLTRQRY-NH2 (SMILES CC(C)CC(=O)N[C@@H](C)C(=O)N1CCC[C@H]1C(=O)N[C@@H](CCC(=O)O)C(=O)N[C@@H](CCCCNC(=O)COCCOCCNC(=O)COCCOCCNC(=O)CC[C@H](NC(=O)CCCCCCCCCCCCCCCCC(=O)O)C(=O)O)C(=O)N1CCC[C@H]1C(=O)N[C@@H](CCC(=O)O)C(=O)N[C@@H](CCC(=O)O)C(=O)N[C@@H](CC(=O)O)C(=O)N[C@@H](C)C(=O)N[C@@H](CCC(N)=O)C(=O)N1CCC[C@H]1C(=O)N[C@@H](CCC(=O)O)C(=O)N[C@@H](CCC(=O)O)C(=O)N[C@@H](CC(C)C)C(=O)N[C@@H](CCC(N)=O)C(=O)N[C@@H](CCC(=O)O)C(=O)N[C@@H](Cc1ccc(O)cc1)C(=O)N[C@@H](Cc1ccc(O)cc1)C(=O)N[C@H](C(=O)N[C@@H](CO)C(=O)N[C@@H](CC(C)C)C(=O)N[C@@H](CCCNC(=N)N)C(=O)N[C@@H](Cc1c[nH]cn1)C(=O)N[C@@H](Cc1ccc(O)cc1)C(=O)N[C@@H](Cc1ccc(O)cc1)C(=O)N[C@@H](CC(N)=O)C(=O)N[C@@H](Cc1c[nH]c2ccccc12)C(=O)N[C@@H](CC(C)C)C(=O)N[C@H](C(=O)N[C@@H](CCCNC(=N)N)C(=O)N[C@@H](CCC(N)=O)C(=O)N[C@@H](CCCNC(=N)N)C(=O)N[C@@H](Cc1ccc(O)cc1)C(N)=O)[C@@H](C)O)C(C)C) [Compound 1] | 2.5 nM |
| Isovaleryl-APEK([AEEA-AEEA-γGlu-C18 diacid])PEEEASPAELQRYYVSLRHYYNWLTRQRY-NH2 (SMILES CC(C)CC(=O)N[C@@H](C)C(=O)N1CCC[C@H]1C(=O)N[C@@H](CCC(=O)O)C(=O)N[C@@H](CCCCNC(=O)COCCOCCNC(=O)COCCOCCNC(=O)CC[C@H](NC(=O)CCCCCCCCCCCCCCCCC(=O)O)C(=O)O)C(=O)N1CCC[C@H]1C(=O)N[C@@H](CCC(=O)O)C(=O)N[C@@H](CCC(=O)O)C(=O)N[C@@H](CCC(=O)O)C(=O)N[C@@H](C)C(=O)N[C@@H](CO)C(=O)N1CCC[C@H]1C(=O)N[C@@H](C)C(=O)N[C@@H](CCC(=O)O)C(=O)N[C@@H](CC(C)C)C(=O)N[C@@H](CCC(N)=O)C(=O)N[C@@H](CCCNC(=N)N)C(=O)N[C@@H](Cc1ccc(O)cc1)C(=O)N[C@@H](Cc1ccc(O)cc1)C(=O)N[C@H](C(=O)N[C@@H](CO)C(=O)N[C@@H](CC(C)C)C(=O)N[C@@H](CCCNC(=N)N)C(=O)N[C@@H](Cc1c[nH]cn1)C(=O)N[C@@H](Cc1ccc(O)cc1)C(=O)N[C@@H](Cc1ccc(O)cc1)C(=O)N[C@@H](CC(N)=O)C(=O)N[C@@H](Cc1c[nH]c2ccccc12)C(=O)N[C@@H](CC(C)C)C(=O)N[C@H](C(=O)N[C@@H](CCCNC(=N)N)C(=O)N[C@@H](CCC(N)=O)C(=O)N[C@@H](CCCNC(=N)N)C(=O)N[C@@H](Cc1ccc(O)cc1)C(N)=O)[C@@H](C)O)C(C)C) [Compound 3] | 3.14 nM |
| Isovaleryl-APEK([AEEA-AEEA-γGlu-C18 diacid])PEEDASPEELQRYYVSLRHYYNWLQRQRY-NH2 (SMILES CC(C)CC(=O)N[C@@H](C)C(=O)N1CCC[C@H]1C(=O)N[C@@H](CCC(=O)O)C(=O)N[C@@H](CCCCNC(=O)COCCOCCNC(=O)COCCOCCNC(=O)CC[C@H](NC(=O)CCCCCCCCCCCCCCCCC(=O)O)C(=O)O)C(=O)N1CCC[C@H]1C(=O)N[C@@H](CCC(=O)O)C(=O)N[C@@H](CCC(=O)O)C(=O)N[C@@H](CC(=O)O)C(=O)N[C@@H](C)C(=O)N[C@@H](CO)C(=O)N1CCC[C@H]1C(=O)N[C@@H](CCC(=O)O)C(=O)N[C@@H](CCC(=O)O)C(=O)N[C@@H](CC(C)C)C(=O)N[C@@H](CCC(N)=O)C(=O)N[C@@H](CCCNC(=N)N)C(=O)N[C@@H](Cc1ccc(O)cc1)C(=O)N[C@@H](Cc1ccc(O)cc1)C(=O)N[C@H](C(=O)N[C@@H](CO)C(=O)N[C@@H](CC(C)C)C(=O)N[C@@H](CCCNC(=N)N)C(=O)N[C@@H](Cc1c[nH]cn1)C(=O)N[C@@H](Cc1ccc(O)cc1)C(=O)N[C@@H](Cc1ccc(O)cc1)C(=O)N[C@@H](CC(N)=O)C(=O)N[C@@H](Cc1c[nH]c2ccccc12)C(=O)N[C@@H](CC(C)C)C(=O)N[C@@H](CCC(N)=O)C(=O)N[C@@H](CCCNC(=N)N)C(=O)N[C@@H](CCC(N)=O)C(=O)N[C@@H](CCCNC(=N)N)C(=O)N[C@@H](Cc1ccc(O)cc1)C(N)=O)C(C)C) [Compound 4] | 1.43 nM |
| Isovaleryl-APEK([AEEA-AEEA-γGlu-C18 diacid])PEEEVSPEELQRYYVSLRHYYNWLTRQRY-NH2 (SMILES CC(C)CC(=O)N[C@@H](C)C(=O)N1CCC[C@H]1C(=O)N[C@@H](CCC(=O)O)C(=O)N[C@@H](CCCCNC(=O)COCCOCCNC(=O)COCCOCCNC(=O)CC[C@H](NC(=O)CCCCCCCCCCCCCCCCC(=O)O)C(=O)O)C(=O)N1CCC[C@H]1C(=O)N[C@@H](CCC(=O)O)C(=O)N[C@@H](CCC(=O)O)C(=O)N[C@@H](CCC(=O)O)C(=O)N[C@H](C(=O)N[C@@H](CO)C(=O)N1CCC[C@H]1C(=O)N[C@@H](CCC(=O)O)C(=O)N[C@@H](CCC(=O)O)C(=O)N[C@@H](CC(C)C)C(=O)N[C@@H](CCC(N)=O)C(=O)N[C@@H](CCCNC(=N)N)C(=O)N[C@@H](Cc1ccc(O)cc1)C(=O)N[C@@H](Cc1ccc(O)cc1)C(=O)N[C@H](C(=O)N[C@@H](CO)C(=O)N[C@@H](CC(C)C)C(=O)N[C@@H](CCCNC(=N)N)C(=O)N[C@@H](Cc1c[nH]cn1)C(=O)N[C@@H](Cc1ccc(O)cc1)C(=O)N[C@@H](Cc1ccc(O)cc1)C(=O)N[C@@H](CC(N)=O)C(=O)N[C@@H](Cc1c[nH]c2ccccc12)C(=O)N[C@@H](CC(C)C)C(=O)N[C@H](C(=O)N[C@@H](CCCNC(=N)N)C(=O)N[C@@H](CCC(N)=O)C(=O)N[C@@H](CCCNC(=N)N)C(=O)N[C@@H](Cc1ccc(O)cc1)C(N)=O)[C@@H](C)O)C(C)C)C(C)C) [Compound 5] | 14.8 nM |
| Isovaleryl-APEK([AEEA-AEEA-γGlu-C18 diacid])PEEEASPEELQRYYVSARHYYNWLTRQRY-NH2 (SMILES CC(C)CC(=O)N[C@@H](C)C(=O)N1CCC[C@H]1C(=O)N[C@@H](CCC(=O)O)C(=O)N[C@@H](CCCCNC(=O)COCCOCCNC(=O)COCCOCCNC(=O)CC[C@H](NC(=O)CCCCCCCCCCCCCCCCC(=O)O)C(=O)O)C(=O)N1CCC[C@H]1C(=O)N[C@@H](CCC(=O)O)C(=O)N[C@@H](CCC(=O)O)C(=O)N[C@@H](CCC(=O)O)C(=O)N[C@@H](C)C(=O)N[C@@H](CO)C(=O)N1CCC[C@H]1C(=O)N[C@@H](CCC(=O)O)C(=O)N[C@@H](CCC(=O)O)C(=O)N[C@@H](CC(C)C)C(=O)N[C@@H](CCC(N)=O)C(=O)N[C@@H](CCCNC(=N)N)C(=O)N[C@@H](Cc1ccc(O)cc1)C(=O)N[C@@H](Cc1ccc(O)cc1)C(=O)N[C@H](C(=O)N[C@@H](CO)C(=O)N[C@@H](C)C(=O)N[C@@H](CCCNC(=N)N)C(=O)N[C@@H](Cc1c[nH]cn1)C(=O)N[C@@H](Cc1ccc(O)cc1)C(=O)N[C@@H](Cc1ccc(O)cc1)C(=O)N[C@@H](CC(N)=O)C(=O)N[C@@H](Cc1c[nH]c2ccccc12)C(=O)N[C@@H](CC(C)C)C(=O)N[C@H](C(=O)N[C@@H](CCCNC(=N)N)C(=O)N[C@@H](CCC(N)=O)C(=O)N[C@@H](CCCNC(=N)N)C(=O)N[C@@H](Cc1ccc(O)cc1)C(N)=O)[C@@H](C)O)C(C)C) [Compound 6] | 6.52 nM |
| Isovaleryl-APEK([AEEA-AEEA-γGlu-C18 diacid])PEEDASPEELQAYYVSLRHYYNWLTRQRY-NH2 (SMILES CC(C)CC(=O)N[C@@H](C)C(=O)N1CCC[C@H]1C(=O)N[C@@H](CCC(=O)O)C(=O)N[C@@H](CCCCNC(=O)COCCOCCNC(=O)COCCOCCNC(=O)CC[C@H](NC(=O)CCCCCCCCCCCCCCCCC(=O)O)C(=O)O)C(=O)N1CCC[C@H]1C(=O)N[C@@H](CCC(=O)O)C(=O)N[C@@H](CCC(=O)O)C(=O)N[C@@H](CC(=O)O)C(=O)N[C@@H](C)C(=O)N[C@@H](CO)C(=O)N1CCC[C@H]1C(=O)N[C@@H](CCC(=O)O)C(=O)N[C@@H](CCC(=O)O)C(=O)N[C@@H](CC(C)C)C(=O)N[C@@H](CCC(N)=O)C(=O)N[C@@H](C)C(=O)N[C@@H](Cc1ccc(O)cc1)C(=O)N[C@@H](Cc1ccc(O)cc1)C(=O)N[C@H](C(=O)N[C@@H](CO)C(=O)N[C@@H](CC(C)C)C(=O)N[C@@H](CCCNC(=N)N)C(=O)N[C@@H](Cc1c[nH]cn1)C(=O)N[C@@H](Cc1ccc(O)cc1)C(=O)N[C@@H](Cc1ccc(O)cc1)C(=O)N[C@@H](CC(N)=O)C(=O)N[C@@H](Cc1c[nH]c2ccccc12)C(=O)N[C@@H](CC(C)C)C(=O)N[C@H](C(=O)N[C@@H](CCCNC(=N)N)C(=O)N[C@@H](CCC(N)=O)C(=O)N[C@@H](CCCNC(=N)N)C(=O)N[C@@H](Cc1ccc(O)cc1)C(N)=O)[C@@H](C)O)C(C)C) [Compound 7] | 1.02 nM |
